Experimental data published in IntAct's records for PubMed 12646039.

B1: E3 ubiquitin-protein ligase RHA2A (Arabidopsis thaliana (Mouse-ear cress)), Q9ZT50 (parent)
chain: MGLQGQLSDVSSDSIPLMLLSLLAVFINHLRSFLLRLTSKSNPNLPVDDVSIASGLANIIVLADQLSLNRLFSYRCGDGGGGGSDCVVCLSKLKEGEEVRKLECRHVFHKKCLEGWLHQFNFTCPLCRSALVSDDCVSKTQRSVGRDLISCFSLH
partner: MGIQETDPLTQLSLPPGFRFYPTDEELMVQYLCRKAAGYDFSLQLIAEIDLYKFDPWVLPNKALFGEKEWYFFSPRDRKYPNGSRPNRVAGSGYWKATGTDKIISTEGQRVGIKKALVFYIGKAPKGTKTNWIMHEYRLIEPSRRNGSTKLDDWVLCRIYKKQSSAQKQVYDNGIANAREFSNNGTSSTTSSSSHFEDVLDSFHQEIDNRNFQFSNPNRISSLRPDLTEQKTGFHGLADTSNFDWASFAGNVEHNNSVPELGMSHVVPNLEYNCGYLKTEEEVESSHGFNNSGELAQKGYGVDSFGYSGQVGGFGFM

Variants of: B1
Conditions: with nac19_arath NAC019, Q9C932

How did the “effect of a mutation on the interaction” value turn out when E103P was run?
The value was “decreasing interaction”.

How did the “effect of a mutation on the interaction” value turn out when C89S was run?
Its value is “decreasing interaction”.
